Assay results: the supplement of paper PMC9116672
± gives the standard deviation of the averaged measurements or the uncertainty stated by the source.

How the values were obtained:
[1] = duplex formation entropy ΔS (Van't Hoff fit of HRM Tm); higher = smaller entropy loss on duplex formation; details: temperature for dG: 50 °C, NaCl: 500 mM (unadjusted)
Experimental: (§1)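 Duplex of the listed DNA strand with its complement, in 1x NNE buffer (500 mM NaCl, pH 7.0) with 1x EvaGreen. ΔH and ΔS come from a Van't Hoff linear fit of 1/Tm against ln(CT/4) over 1-20 uM, using HRM Tm values.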

[2] = duplex formation enthalpy ΔH (Van't Hoff fit of HRM Tm); higher = less exothermic duplex formation; details: temperature for dG: 50 °C, NaCl: 500 mM (unadjusted)
Experimental: as §1

[3] = duplex melting temperature (HRM, EvaGreen); higher = more stable duplex
Experimental: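 Listed DNA strand annealed 1:1 with its complementary strand (95 °C 5 min, 0.1 °C/s to 20 °C). Melted in 1x NNE buffer (500 mM NaCl, 10 mM Na2HPO4, 1 mM EDTA, pH 7.0) with 1x EvaGreen on a LightCycler96 (37 to 97 °C, 0.1 °C/s). Tm is the peak of -dF/dT at the stated total duplex concentration; 4 replicates are averaged. PS oligos are non-stereospecific (Rp/Sp mixtures).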

[4] = duplex formation free energy ΔG50 (Van't Hoff fit of HRM Tm); higher = less stable duplex; details: temperature for dG: 50 °C, NaCl: 500 mM (unadjusted)
Experimental: as §1

[5] = backbone: PO-PO (both strands phosphodiester DNA)
[6] = backbone: PS-PO (listed strand fully phosphorothioate, complement phosphodiester)
[7] = backbone: PS-PS (both strands fully phosphorothioate)
[8] = duplex concentration 1 µM, backbone: PO-PO (both strands phosphodiester DNA)
[9] = duplex concentration 1 µM, backbone: PS-PO (listed strand fully phosphorothioate, complement phosphodiester)
[10] = duplex concentration 1 µM, backbone: PS-PS (both strands fully phosphorothioate)
[11] = duplex concentration 2.5 µM, backbone: PO-PO (both strands phosphodiester DNA)
[12] = duplex concentration 2.5 µM, backbone: PS-PO (listed strand fully phosphorothioate, complement phosphodiester)
[13] = duplex concentration 2.5 µM, backbone: PS-PS (both strands fully phosphorothioate)
[14] = duplex concentration 5 µM, backbone: PO-PO (both strands phosphodiester DNA)
[15] = duplex concentration 5 µM, backbone: PS-PO (listed strand fully phosphorothioate, complement phosphodiester)
[16] = duplex concentration 5 µM, backbone: PS-PS (both strands fully phosphorothioate)
[17] = duplex concentration 7.5 µM, backbone: PO-PO (both strands phosphodiester DNA)
[18] = duplex concentration 7.5 µM, backbone: PS-PO (listed strand fully phosphorothioate, complement phosphodiester)
[19] = duplex concentration 7.5 µM, backbone: PS-PS (both strands fully phosphorothioate)
[20] = duplex concentration 10 µM, backbone: PO-PO (both strands phosphodiester DNA)
[21] = duplex concentration 10 µM, backbone: PS-PO (listed strand fully phosphorothioate, complement phosphodiester)
[22] = duplex concentration 10 µM, backbone: PS-PS (both strands fully phosphorothioate)
[23] = duplex concentration 15 µM, backbone: PO-PO (both strands phosphodiester DNA)
[24] = duplex concentration 15 µM, backbone: PS-PO (listed strand fully phosphorothioate, complement phosphodiester)
[25] = duplex concentration 15 µM, backbone: PS-PS (both strands fully phosphorothioate)
[26] = duplex concentration 20 µM, backbone: PO-PO (both strands phosphodiester DNA)
[27] = duplex concentration 20 µM, backbone: PS-PO (listed strand fully phosphorothioate, complement phosphodiester)
[28] = duplex concentration 20 µM, backbone: PS-PS (both strands fully phosphorothioate)

Sequence | duplex formation entropy ΔS [1, 5] [cal/mol/K] | duplex formation entropy ΔS [1, 6] [cal/mol/K] | duplex formation entropy ΔS [1, 7] [cal/mol/K] | duplex formation enthalpy ΔH [2, 5] [kcal/mol] | duplex formation enthalpy ΔH [2, 6] [kcal/mol] | duplex formation enthalpy ΔH [2, 7] [kcal/mol] | duplex melting temperature [3, 8] [°C] | duplex melting temperature [3, 9] [°C] | duplex melting temperature [3, 10] [°C] | duplex melting temperature [3, 11] [°C] | duplex melting temperature [3, 12] [°C] | duplex melting temperature [3, 13] [°C] | duplex melting temperature [3, 14] [°C] | duplex melting temperature [3, 15] [°C] | duplex melting temperature [3, 16] [°C] | duplex melting temperature [3, 17] [°C] | duplex melting temperature [3, 18] [°C] | duplex melting temperature [3, 19] [°C] | duplex melting temperature [3, 20] [°C] | duplex melting temperature [3, 21] [°C] | duplex melting temperature [3, 22] [°C] | duplex melting temperature [3, 23] [°C] | duplex melting temperature [3, 24] [°C] | duplex melting temperature [3, 25] [°C] | duplex melting temperature [3, 26] [°C] | duplex melting temperature [3, 27] [°C] | duplex melting temperature [3, 28] [°C] | duplex formation free energy ΔG50 [4, 5] [kcal/mol] | duplex formation free energy ΔG50 [4, 6] [kcal/mol] | duplex formation free energy ΔG50 [4, 7] [kcal/mol]
TTGTAGTTGACGTTTGTGATTTAGTGAATT | -503 ± 23 | -414 ± 12 | -335 ± 7.4 | -186 ± 8.2 | -151 ± 4.2 | -121 ± 2.5 | 75.58 ± 0.12 | 66.16 ± 0.47 | 57.2 ± 0.68 | 76.626 ± 0.046 | 67.48 ± 0.5 | 59 ± 0.58 | 77.623 ± 0.046 | 68.57 ± 0.46 | 60.27 ± 0.37 | 78.24 ± 0.12 | 69.28 ± 0.39 | 60.98 ± 0.26 | 78.646 ± 0.027 | 69.64 ± 0.24 | 61.54 ± 0.13 | 78.98 ± 0.12 | 70.23 ± 0.23 | 62.29 ± 0.073 | 79.7 | 70.83 ± 0.099 | 62.84 ± 0.14 | -23.4 ± 0.65 | -16.9 ± 0.24 | -12.45 ± 0.081
GGTGGCGTTCTT |  | -111 ± 8.2 | -101 ± 9.8 |  | -45.3 ± 2.7 | -41.1 ± 3.2 |  |  | 40.15 ± 0.21 | 61.9 |  | 44.6 ± 0.65 | 63 ± 0.79 |  | 48.03 ± 0.26 | 64.6 ± 0.54 | 57 | 49.76 ± 0.44 | 65.58 ± 0.13 | 58.31 ± 0.53 | 51.3 ± 0.97 | 66.42 ± 0.23 | 60.44 ± 0.39 | 53.7 ± 1.4 | 67.68 ± 0.13 | 61.54 ± 0.24 | 55.8 ± 0.86 |  | -9.41 ± 0.08 | -8.491 ± 0.033
AATGAGGAGTGAAATGG | -190 ± 9.7 | -201 ± 3.6 | -198 ± 4 | -73.5 ± 3.3 | -75.7 ± 1.2 | -72.8 ± 1.3 | 61.5 | 54.3 ± 0.28 | 45.74 ± 0.18 | 62.9 ± 0.89 | 57.29 ± 0.22 | 48.55 ± 0.12 | 65.1 ± 0.71 | 59.317 ± 0.05 | 50.54 ± 0.062 | 66.06 ± 0.59 | 60.42 ± 0.089 | 51.494 ± 0.05 | 67.14 ± 0.48 | 61.271 ± 0.056 | 52.36 ± 0.1 | 68.46 ± 0.62 | 62.43 ± 0.043 | 53.52 ± 0.054 | 69.63 ± 0.3 | 63.28 ± 0.098 | 54.406 ± 0.047 | -12 ± 0.16 | -10.83 ± 0.037 | -8.817 ± 0.012
TTAACCTGCAATGGATC | -176 ± 5.8 | -195 ± 6.1 | -180 ± 5.8 | -68.7 ± 2 | -73.7 ± 2 | -67.1 ± 1.9 | 60.19 ± 0.12 |  | 45.6 ± 0.62 | 63.2 ± 0.41 | 57.18 ± 0.21 | 48.62 ± 0.33 | 65.13 ± 0.59 | 59.09 ± 0.26 | 50.69 ± 0.37 | 66.57 ± 0.28 | 60.587 ± 0.046 | 51.91 ± 0.21 | 67.55 ± 0.2 | 61.376 ± 0.056 | 52.76 ± 0.14 | 68.98 ± 0.14 | 62.586 ± 0.015 | 54.03 ± 0.099 | 70.06 ± 0.25 | 63.32 ± 0.095 | 54.97 ± 0.2 | -11.83 ± 0.098 | -10.78 ± 0.066 | -8.858 ± 0.019
GATTGTATCATCGACATCACACTACC | -336 ± 26 | -375 ± 14 | -271 ± 6.5 | -127 ± 9.1 | -137 ± 4.9 | -99.2 ± 2.2 | 73.69 ± 0.2 | 65.7 ± 0.68 | 56.3 ± 0.93 | 74.91 ± 0.39 | 67.05 ± 0.59 | 58.43 ± 0.52 | 76.04 ± 0.6 | 68.37 ± 0.47 | 59.81 ± 0.47 | 76.92 ± 0.26 | 68.77 ± 0.45 | 60.92 ± 0.21 | 77.78 ± 0.12 | 69.57 ± 0.28 | 61.49 ± 0.14 | 78.7 ± 0.1 | 70.36 ± 0.14 | 62.51 ± 0.2 | 79.317 ± 0.061 | 70.75 ± 0.1 | 63.05 ± 0.085 | -18.3 ± 0.7 | -16.1 ± 0.27 | -11.7 ± 0.069
AGAGCGCCCTGCTGCC | -220 ± 9 | -189 ± 7.4 | -211 ± 5 | -86.9 ± 3.2 | -74.4 ± 2.6 | -80.8 ± 1.7 |  |  | 61.69 ± 0.3 | 76.76 ± 0.43 | 69.05 ± 0.38 | 64.26 ± 0.22 | 78.81 ± 0.32 | 71.34 ± 0.29 | 66.24 ± 0.22 | 79.83 ± 0.11 | 72.67 ± 0.34 | 67.29 ± 0.24 | 80.68 ± 0.17 | 73.6 ± 0.23 | 68.17 ± 0.076 | 81.9 ± 0.28 | 74.83 ± 0.1 | 69.33 ± 0.14 | 82.78 ± 0.25 | 75.7 ± 0.12 | 70.195 ± 0.058 | -15.8 ± 0.28 | -13.3 ± 0.17 | -12.59 ± 0.085
GTGAAACAATGCTGTAG | -199 ± 8.8 | -201 ± 6.2 | -197 ± 6.4 | -76.6 ± 3 | -75.5 ± 2 | -72.1 ± 2 | 60.8 |  | 43.88 ± 0.29 | 62.87 ± 0.2 | 56.26 ± 0.25 | 46.82 ± 0.2 | 65.1 ± 0.46 | 58.51 ± 0.13 | 48.72 ± 0.15 | 66.14 ± 0.17 | 59.58 ± 0.12 | 49.72 ± 0.1 | 67.07 ± 0.17 | 60.43 ± 0.12 | 50.48 ± 0.19 | 68.31 ± 0.14 | 61.59 ± 0.25 | 51.63 ± 0.11 | 69.27 ± 0.11 | 62.36 ± 0.4 | 52.66 ± 0.18 | -12.1 ± 0.14 | -10.63 ± 0.061 | -8.41 ± 0.018
CGGTGCTTTTGGTAGC | -204 ± 15 | -200 ± 4.7 | -184 ± 7.3 | -78.9 ± 5 | -75.7 ± 1.6 | -69.1 ± 2.4 | 64.53 ± 0.35 | 55.5 | 48.49 ± 0.47 | 66.24 ± 0.63 | 57.98 ± 0.26 | 51.59 ± 0.36 | 68.2 ± 0.57 | 60.12 ± 0.16 | 53.89 ± 0.15 | 69.42 ± 0.55 | 61.35 ± 0.16 | 55.11 ± 0.14 | 70.49 ± 0.27 | 62.11 ± 0.17 | 55.86 ± 0.081 | 71.77 ± 0.14 | 63.256 ± 0.027 | 56.93 ± 0.08 | 72.89 ± 0.21 | 64.025 ± 0.015 | 57.7 ± 0.2 | -13 ± 0.28 | -11.01 ± 0.054 | -9.497 ± 0.038
CAAACTTAGTAATCACGCCCAGCAACCA | -372 ± 24 | -404 ± 22 | -303 ± 10 | -141 ± 8.4 | -149 ± 7.5 | -112 ± 3.5 | 78.3 ± 0.4 | 71.41 ± 0.5 | 62.3 ± 0.89 | 79.54 ± 0.39 | 72.56 ± 0.53 | 64.34 ± 0.43 | 80.55 ± 0.61 | 73.83 ± 0.46 | 65.81 ± 0.35 | 81.42 ± 0.21 | 74.22 ± 0.47 | 66.74 ± 0.11 | 82.09 ± 0.11 | 74.81 ± 0.22 | 67.319 ± 0.064 | 82.922 ± 0.079 | 75.66 ± 0.16 | 67.904 ± 0.048 | 83.591 ± 0.062 | 76.275 ± 0.049 | 68.51 ± 0.1 | -21 ± 0.74 | -19 ± 0.52 | -13.9 ± 0.17
